Laboratory results taken from publication PMC12660843, “Using phage display for rational engineering of a higher-affinity humanized 3’ phosphohistidine-specific antibody” (Communications Chemistry, 2025).
Blank lines part the entries; values can stand above or below the binder they belong to. *1 amine or outer side, *2 acyl side, *3 side chain or, on linkers, in order; H or OH if unused. Where no end group is shown, it is not given here. [ ]: non-standard residue; d: D form. The star is where a group is joined. 3‑pTza = 3-phosphotriazolyl alanine (also given as 3-phosphoryl-triazolylalanine); 3‑pHis = 3-phosphohistidine, O=C([C@H](Cc1cn(P(=O)(O)O)cn1)N[*:1])[*:2]; Biotin = O=C1N[C@H]2[C@H](CS[C@H]2CCCCC(=O)*)N1; Ahx = NCCCCCC(=O)O

Columns and labels:
[1] = molecular target: 3-pTza peptide (Biotin-AminocaproicAcid-A.G.A.G.3-pTza.A.G.A.G); experiment: BLI; Octet RED96e; biotinylated peptides captured on streptavidin biosensors at 20 nM; Fab in solution, 20-200 nM; 1x HBS-T, 1% BSA
[2] = molecular target: 3-pTza peptide (Biotin-AminocaproicAcid-A.G.A.G.3-pTza.A.G.A.G); experiment: as above; remark: listed apart in the source
[3] = molecular target: T1, 3-pHis peptide (Biotin-AminocaproicAcid-A.G.A.G.H.A.G.A.G phosphorylated by phosphoramidate); experiment: as above
T1 construct: His-peptide, phosphorylated on His5; the phosphoramidate reaction gives a mixture of non-phosphorylated, 1-pHis, 3-pHis and di-pHis peptide; also called Biotinylated ACLYana-3-pHis; ACLYana-pHis; source: synthetic peptide, phosphorylated with potassium phosphoramidate; not shown: biotin, N-terminal, kept
T1 peptide: {Biotin-Ahx}-AGAG[3‑pHis]AGAG

[4] = molecular target: 3-pTza peptide (Biotin-AminocaproicAcid-A.G.A.G.3-pTza.A.G.A.G); experiment: BLI; Octet HTX; biotinylated peptides captured on streptavidin biosensors at 20 nM; IgG in solution, 20-200 nM; 1x HBS-T, 1% BSA
[5] = molecular target: T1, 3-pHis peptide …; experiment: as above
[6] = molecular target: T2, 3-pHis form of ACLY (120 kDa) (Homo sapiens (HEK293T, endogenous), UniProt P53396, 3-phosphohistidine (site not stated)); experiment: immunoblot; HEK293T whole cell lysate, 30 µg, alkaline 12% SDS-PAGE and alkaline blotting at 4 °C; 0.5 µg/mL IgG as primary antibody, 1 h at room temperature; HRP secondary antibody; settings: one partner purified
T2 construct: ACLY (ATP-citrate lyase), 120 kDa band on the immunoblot; source: endogenous, HEK293T lysate

[7] = molecular target: T3, 3-pHis form of the a-subunit of SCS (30 kDa) (Homo sapiens (HEK293T, endogenous), UniProt P53597, 3-phosphohistidine (site not stated)); experiment: as above; settings: one partner purified
T3 construct: alpha subunit of SCS (succinyl-CoA synthetase), 30 kDa band on the immunoblot; source: endogenous, HEK293T lysate

[8] = molecular target: T4, 3-pTza peptide (Biotin-AminocaproicAcid-A.G.A.G.3-pTza.A.G.A.G) (synthetic construct); experiment: BLI
T4 chain: {Biotin-Ahx}-AGAG[3‑pTza]AGAG

[9] = molecular target: T5, 3-pTza peptide (Biotin-AminocaproicAcid-A.G.A.G.3-pTza.A.G.A.G); experiment: BLI; biotinylated peptide captured on streptavidin biosensors at 20 nM; IgG in solution at 20-200 nM; Octet HTX; 1x HBS-T, 1% BSA; settings: both partners purified
T5 chain: {Biotin-Ahx}-AGAG[3‑pTza]AGAG

[10] = molecular target: T1, 3-pHis peptide …; experiment: as above; settings: both partners purified

T2 sequence (P53396 whole entry): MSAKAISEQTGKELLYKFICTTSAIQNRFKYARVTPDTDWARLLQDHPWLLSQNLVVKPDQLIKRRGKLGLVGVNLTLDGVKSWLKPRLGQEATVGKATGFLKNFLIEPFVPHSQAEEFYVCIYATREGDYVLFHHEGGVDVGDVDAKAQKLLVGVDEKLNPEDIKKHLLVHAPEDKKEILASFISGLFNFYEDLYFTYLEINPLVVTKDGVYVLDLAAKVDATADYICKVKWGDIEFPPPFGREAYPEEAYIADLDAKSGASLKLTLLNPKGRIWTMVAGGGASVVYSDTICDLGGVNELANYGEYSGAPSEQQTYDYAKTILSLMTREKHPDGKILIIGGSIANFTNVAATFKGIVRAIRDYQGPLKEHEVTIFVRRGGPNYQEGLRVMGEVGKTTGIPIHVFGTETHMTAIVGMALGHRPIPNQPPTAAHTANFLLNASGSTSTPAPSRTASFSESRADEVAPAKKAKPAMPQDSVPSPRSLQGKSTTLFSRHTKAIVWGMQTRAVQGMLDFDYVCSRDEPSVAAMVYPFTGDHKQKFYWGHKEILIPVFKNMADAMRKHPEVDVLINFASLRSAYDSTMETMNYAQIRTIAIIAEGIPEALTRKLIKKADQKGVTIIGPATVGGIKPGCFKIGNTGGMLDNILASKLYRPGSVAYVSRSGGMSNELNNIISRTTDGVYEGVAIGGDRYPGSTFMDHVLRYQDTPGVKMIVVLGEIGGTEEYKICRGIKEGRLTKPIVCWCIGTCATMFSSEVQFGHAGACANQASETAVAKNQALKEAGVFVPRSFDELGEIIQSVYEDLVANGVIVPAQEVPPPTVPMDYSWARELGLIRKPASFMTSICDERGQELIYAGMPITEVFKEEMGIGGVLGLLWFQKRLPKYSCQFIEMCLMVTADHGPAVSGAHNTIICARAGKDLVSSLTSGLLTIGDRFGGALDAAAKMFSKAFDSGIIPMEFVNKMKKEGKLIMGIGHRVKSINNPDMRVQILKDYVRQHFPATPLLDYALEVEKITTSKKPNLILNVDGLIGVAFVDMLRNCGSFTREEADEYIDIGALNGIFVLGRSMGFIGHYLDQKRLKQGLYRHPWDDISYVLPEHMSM
T3 sequence (P53597 41-346): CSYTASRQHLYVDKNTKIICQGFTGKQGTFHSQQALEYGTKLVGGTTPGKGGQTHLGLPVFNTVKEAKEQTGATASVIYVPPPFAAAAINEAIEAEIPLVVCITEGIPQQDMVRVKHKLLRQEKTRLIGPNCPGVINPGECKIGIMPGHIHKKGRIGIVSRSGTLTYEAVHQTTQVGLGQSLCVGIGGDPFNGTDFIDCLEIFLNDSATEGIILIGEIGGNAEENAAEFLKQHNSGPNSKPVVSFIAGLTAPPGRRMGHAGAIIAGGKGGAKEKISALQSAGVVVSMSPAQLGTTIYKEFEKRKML

B1: hSC44 Fab (Fab, V domains shown)
VH: EVQLVESGGGLVQPGGSLRLSCTASGFSIDSYGFSWVRQAPGKGLEHIGYLTAGGRAFYASWAKSRSTITRNTNENTVTLKMNSLRAEDTAVYYCAKLGSGNPVAIWGQGTLVTVSS
VL: DIQMTQSPSSLSASVGDRVTITCRASQSVWRNKNVAWYQQKPGKAPKRLIYAIASLYSGVPSRFSGSGSGTDFTLTISSLQPEDFATYYCVGHYGSENDAYYAFGQGTKVEIK
Kd [1]: 1.62 nM | koff [1]: 8.16e-05 s⁻¹ | kon [1]: 50600 M⁻¹ s⁻¹ | Kd [2]: 1.5 nM | Kd [3]: 40.5 nM | koff [3]: 0.00235 s⁻¹ | kon [3]: 57900 M⁻¹ s⁻¹

B2: hSC44.20.N32F^L IgG (antibody, V domains shown)
VH: EVQLVESGGGLVQPGGSLRLSCTASGFSIDSYGFSWVRQAPGKGLEHIGYLTAGGRAFYASWAKSRSTITRNTNENTVTLKMNSLRAEDTAVYYCAKLGTGSRFAIWGQGTLVTVSS
VL: DIQMTQSPSSLSASVGDRVTITCRASQSVWRNKFVAWYQQKPGKAPKRLIYAIASLYSGVPSRFSGSGSGTDFTLTISSLQPEDFATYYCVGHYGSENDAYYAFGQGTKVEIK
notes: as the heavy chain of m4 (heavy chain of m2 with the stated CDR-H3 changes, Kabat numbering); as the light chain of m1 with N32F in CDR-L1 (Kabat numbering); source: Expi293, transfected, purified (CaptoL, SEC); copies: 2 + 2
Kd [4]: < 1.54 nM | Kd [5]: 1.6 nM | binding result [6]: binds | binding result [7]: binds

More lines, now with the values ahead:

koff [8]: 9.3e-05 s⁻¹ | Kd [4]: 1.2 nM
B3: hSC44 IgG (antibody, V domains shown)
VH: EVQLVESGGGLVQPGGSLRLSCTASGFSIDSYGFSWVRQAPGKGLEHIGYLTAGGRAFYASWAKSRSTITRNTNENTVTLKMNSLRAEDTAVYYCAKLGSGNPVAIWGQGTLVTVSS
VL: DIQMTQSPSSLSASVGDRVTITCRASQSVWRNKNVAWYQQKPGKAPKRLIYAIASLYSGVPSRFSGSGSGTDFTLTISSLQPEDFATYYCVGHYGSENDAYYAFGQGTKVEIK

koff [9]: < 1e-07 s⁻¹ | kon [9]: 257000 M⁻¹ s⁻¹ | Kd [10]: 21 nM
B4: hSC44.20 IgG (antibody, V domains shown)
VH: EVQLVESGGGLVQPGGSLRLSCTASGFSIDSYGFSWVRQAPGKGLEHIGYLTAGGRAFYASWAKSRSTITRNTNENTVTLKMNSLRAEDTAVYYCAKLGTGSRFAIWGQGTLVTVSS
VL: DIQLTQSPSSLSASVGDRVTITCRASQSVWRNKNVAWYQQKPGKAPKRLIYAIASLYSGVPSRFSGSGSGTDFTLTISSLQPEDFATYYCVGHYGSENDAYYAFGQGTKVEIK
notes: human IgG1, kappa light chain

Kd [4]: < 0.001 nM | Kd [5]: 9.5 nM
B5: hSC44.20.N32Y^L IgG (antibody, V domains shown)
VH: EVQLVESGGGLVQPGGSLRLSCTASGFSIDSYGFSWVRQAPGKGLEHIGYLTAGGRAFYASWAKSRSTITRNTNENTVTLKMNSLRAEDTAVYYCAKLGTGSRFAIWGQGTLVTVSS
VL: DIQMTQSPSSLSASVGDRVTITCRASQSVWRNKYVAWYQQKPGKAPKRLIYAIASLYSGVPSRFSGSGSGTDFTLTISSLQPEDFATYYCVGHYGSENDAYYAFGQGTKVEIK
